Measured values: the RNAGym collection of RNA variant scans (doi:10.7554/elife.80360)

B1: Hammerhead Ribozyme (parent)
chain: ACCGGAUGUGCUUUCCGGUCUGAUGAGUCCGUGAGGACGAAACAG

Variants of: B1
Experiment: self-cleavage, relative activity (ratio to wild type); higher = more cleavage; co-transcriptional

Variant	self-cleavage
ACCGGAUGUGCUUUCCGGUCUGAUGAGUCAGUGAGGACCAAACAG [C30A G39C]	0.303
ACCGGUUGUGCUUUCCGGUCUGAUGAGUCCGUGAGGACGACACAG [A6U A41C]	0.334
ACCGGAUGUGCUUUCCGGUCUGAUGAGUCCGUGAGGACGGUACAG [A40G A41U]	0.31
ACCGAAUGUGCUUGCCGGUCUGAUGAGUCCGUGAGGACGAAACAG [G5A U14G]	1.41
ACCGGGUGUGUUUUCCGGUCUGAUGAGUCCGUGAGGACGAAACAG [A6G C11U]	0.796
ACCGGAUGUGCUUUCCGGCCAGAUGAGUCCGUGAGGACGAAACAG [U19C U21A]	0.416
ACCGGAUUUGCUUUCCGGUCUGAUGAGUCCGAGAGGACGAAACAG [G8U U32A]	0.996
ACAGGAUGUUCUUUCCGGUCUGAUGAGUCCGUGAGGACGAAACAG [C3A G10U]	0.921
ACCGGAUGUGCUUUCCGGUCUGAUGAGUCCGUGAAGAAGAAACAG [G35A C38A]	0.482
ACCGAAUGUACUUUCCGGUCUGAUGAGUCCGUGAGGACGAAACAG [G5A G10A]	1.54
ACCGGAUGUGCUUUCCCGUCUGAUGAGUCCGUGAGGACGGAACAG [G17C A40G]	0.373
AACGGAUGUGCUUUCCGGUCUGAUGAGUCCGUGAGGACGACACAG [C2A A41C]	0.366
ACCGGAUGUGCUUUCUGGUCUGAUGAGUCAGUGAGGACGAAACAG [C16U C30A]	0.831
ACCGGAUGUGCUUUCUGGUCUGAUGAGUCUGUGAGGACGAAACAG [C16U C30U]	1.02
ACCGGAUGUGCUUUCCGGUCUGUUGAGUGCGUGAGGACGAAACAG [A23U C29G]	0.345
ACCGGAUGUUCUUUCCGGUCUGAUGAGUCCGUGAGGACGAAAGAG [G10U C43G]	0.405
ACCGGAUGUGCAUUCCGGUCUGAUGAGUCCGUGAGGACGAAAGAG [U12A C43G]	0.301
CCCGGAUGUGCUUUCCGGUCUGAUGAGUCCGUGAGGGCGAAACAG [A1C A37G]	0.348
ACCGGUUGUGCUUUACGGUCUGAUGAGUCCGUGAGGACGAAACAG [A6U C15A]	0.741
ACCGGCUGUGCUUUCCGGUCUGAUGAGUCCGUGAGGACGAAAUAG [A6C C43U]	0.429
ACCGGAUGUGCAUUCCGGUCUGAUGAUUCCGUGAGGACGAAACAG [U12A G27U]	0.412
ACCGGAUGUGAUUUCCGGUCUGAUGAGUCAGUGAGGACGAAACAG [C11A C30A]	1.1
ACCUGAUGUGCUUUGCGGUCUGAUGAGUCCGUGAGGACGAAACAG [G4U C15G]	0.436

Variant	self-cleavage
AGCGGAUUUGCUUUCCGGUCUGAUGAGUCCGUGAGGACGAAACAG [C2G G8U]	0.387
AUCGGAUGUGCUUUCCGGUCUGAUGAGUCCGUUAGGACGAAACAG [C2U G33U]	1.17
ACCGGAUGUGCUUUCCGGUGUCAUGAGUCCGUGAGGACGAAACAG [C20G G22C]	0.43
ACCGGAUGUGCUUUUCGGUCUGAUGAGUCCCUGAGGACGAAACAG [C15U G31C]	0.967
ACCGGAUGCGUUUUCCGGUCUGAUGAGUCCGUGAGGACGAAACAG [U9C C11U]	0.889
ACCGGAUGUGCUUUCCGGUCUGAUUUGUCCGUGAGGACGAAACAG [G25U A26U]	0.343
UCCGGAUGUGCUUUCCGGUCUUAUGAGUCCGUGAGGACGAAACAG [A1U G22U]	0.33
ACCGGAUGUGAUUUCCUGUCUGAUGAGUCCGUGAGGACGAAACAG [C11A G17U]	1
ACCGGAUGUGCGUUCCGGUCUCAUGAGUCCGUGAGGACGAAACAG [U12G G22C]	0.326
ACCGGAUGCGCUUUCCGGUCUGAUUAGUCCGUGAGGACGAAACAG [U9C G25U]	0.309
ACCUGAUGUGCUUUCCGGUCUGAUGAGGCCGUGAGGACGAAACAG [G4U U28G]	0.308
ACCGGAUGUGCUUUCUGGUCUGAUGAGUCCGUUAGGACGAAACAG [C16U G33U]	0.945
ACCGCAUGUGCUCUCCGGUCUGAUGAGUCCGUGAGGACGAAACAG [G5C U13C]	0.681
ACCGGAUGUGCUUUCCGGUCUGAUUAGUCCGAGAGGACGAAACAG [G25U U32A]	0.32
ACCGGAUGUGCUUUCCGGUCUGAUUAGUCCGCGAGGACGAAACAG [G25U U32C]	0.268
AUCGGAUGUGCUUUCCGGUCUGAUGAUUCCGUGAGGACGAAACAG [C2U G27U]	0.568
ACCGGAUGUGCAUUCCGGUCUGAUGAGUCCGUGAGGACGACACAG [U12A A41C]	0.325
ACCGGAUGUGCUUUCCGGUCUGAUAAGUCCGUGAGGACGAAACAA [G25A G45A]	0.336
ACCGGAUGUGAUUUCCGGUCUGAUGAGGCCGUGAGGACGAAACAG [C11A U28G]	0.964
ACCGGAUGUGCUGUCCGGUCUGAUGAGUCCGUGACGACGAAACAG [U13G G35C]	0.819
ACCGGAGGUGCUUUCCGGUCUGAUGAGUCCGUGAGGACGCAACAG [U7G A40C]	0.396
GCCGGAUGUGAUUUCCGGUCUGAUGAGUCCGUGAGGACGAAACAG [A1G C11A]	2.06
GCCGGAUGUGCUUUCCGGUCUGAUGAGUCCGUGAGGACGAAACAC [A1G G45C]	1.01

Variant	self-cleavage
AGCGGAUGUGCUUUCCGGUCUGAUGAGUCCGUGAGGACGAAAGAG [C2G C43G]	0.308
ACCGGAUGUGCUUUCCGGUUUGAUGAGUCCGUUAGGACGAAACAG [C20U G33U]	0.762
ACCGGCUGUGCUUUCCGGUCUGAUGAGUCCGUCAGGACGAAACAG [A6C G33C]	0.472
UCCGGAUGUUCUUUCCGGUCUGAUGAGUCCGUGAGGACGAAACAG [A1U G10U]	0.997
ACCGGUUGUGCUUUCCGGUCUGAUGAGUCCGUGAGGACGAAUCAG [A6U A42U]	0.241
ACCGCAUGUGCUUUCCGGUCUGAUGUGUCCGUGAGGACGAAACAG [G5C A26U]	0.339
ACCGCAUGUGCUUUCCGGUCUGAUGGGUCCGUGAGGACGAAACAG [G5C A26G]	0.267
ACAGGAUGUGCUUUCCGGUCUGAUGAGUCCGUGAGGCCGAAACAG [C3A A37C]	0.354
ACCGGAUGGGGUUUCCGGUCUGAUGAGUCCGUGAGGACGAAACAG [U9G C11G]	1.17
ACCGGAUGUGCUUUCCAGUCUGAUGAGUCCGUGAGGAGGAAACAG [G17A C38G]	0.478
ACCGGAUGUGCAUUCCGGUCUGAUGAGUCCGUGAGGACGAAACAC [U12A G45C]	0.602
ACCGGAUGUGCUUUCCGGUCUGAUGGGUCCGUAAGGACGAAACAG [A26G G33A]	0.401
ACCGGAUGUGCUUUCCGCUCUGAUGAGUGCGUGAGGACGAAACAG [G18C C29G]	0.302
ACCGGAUGGGCUUUCCGGGCUGAUGAGUCCGUGAGGACGAAACAG [U9G U19G]	0.343
ACCGGAUGUGCUUUCCGGUCUGAUGACUCCGUUAGGACGAAACAG [G27C G33U]	0.686
ACCGGAUGUGCUUUCCGGUCUGAUGUGUCCGUGAGAACGAAACAG [A26U G36A]	0.458
ACCCGAUGUGCUUUCCGGUCUGAUGAGACCGUGAGGACGAAACAG [G4C U28A]	0.297
ACCGGAUGUGCUUUCCGGUCUGAUGAGUCCGAGAGGACGAUACAG [U32A A41U]	0.405
ACAGGAUGUGCUUUCCGGUCUGAUGAGUCCGUGAGGACGAAACCG [C3A A44C]	0.418
ACCGGAUGUGCUUUCCGGUCUGAUAAGUCCGUAAGGACGAAACAG [G25A G33A]	0.379
AUCGGAUGUGCUUUCCGCUCUGAUGAGUCCGUGAGGACGAAACAG [C2U G18C]	0.869
ACCGGAUGUGUUUUCCGGUCUGAUGAUUCCGUGAGGACGAAACAG [C11U G27U]	0.487
ACCGGAUGUGCUUUCCGUUCUGAUGCGUCCGUGAGGACGAAACAG [G18U A26C]	0.328

Variant	self-cleavage
ACCGGAUGUGCUUUCCUGUCUGAUGAGUCCGUGAGGACGAAACAA [G17U G45A]	0.436
ACCGGAUGUGUUUUCCGGUCAGAUGAGUCCGUGAGGACGAAACAG [C11U U21A]	0.697
ACCGGAUGUGCUUUCCGGACUGAUGAGCCCGUGAGGACGAAACAG [U19A U28C]	0.313
ACCGGAUGUGCUUUCCGGUCUGAUUAGUCCGUGAGGACUAAACAG [G25U G39U]	0.295
ACCGGAUGUGCUUUCCGGUCUGAUCAGCCCGUGAGGACGAAACAG [G25C U28C]	0.309
ACCGGAUGGGCUUUCCGGUCUCAUGAGUCCGUGAGGACGAAACAG [U9G G22C]	0.399
ACCGUAUGUGCUUUCCGGUCUGAUGAGUCCCUGAGGACGAAACAG [G5U G31C]	1.03
ACCGGAUGUGCUUUCCGGUCUGAUGAGUCCGCGAGGGCGAAACAG [U32C A37G]	0.987
ACGGGAUGUGCUUUCCGGUCUGAUGAGUCCGUGAGGACGGAACAG [C3G A40G]	0.341
ACCGGACGUGCUUUCCGGUCUGAUGAGUCCGUGAUGACGAAACAG [U7C G35U]	0.439
ACCGGAUGUGCUUCCCGGUCUGAUGAGUCCGUGAUGACGAAACAG [U14C G35U]	0.761
ACCGGAUGUGCUUUCCGAUCUGAUGCGUCCGUGAGGACGAAACAG [G18A A26C]	0.366
ACCGGAUGUGCUUGCCGGUCUGAUGAGUCCGUGAGGACGAAUCAG [U14G A42U]	0.268
ACCGGAUGUGCUUUCCCAUCUGAUGAGUCCGUGAGGACGAAACAG [G17C G18A]	0.361
ACCGGAUCUGCUUUCCGGUCUGAUCAGUCCGUGAGGACGAAACAG [G8C G25C]	0.242
ACCGGAGGUGCUUUCGGGUCUGAUGAGUCCGUGAGGACGAAACAG [U7G C16G]	0.765
ACCGGAUGCGCUUUCCGGUCUGAUGUGUCCGUGAGGACGAAACAG [U9C A26U]	0.671
ACCGGAGGUGCUUUCCGGUCUGACGAGUCCGUGAGGACGAAACAG [U7G U24C]	1.23
ACCGGAUGUGCUUUCCGGACUGAUGAGUUCGUGAGGACGAAACAG [U19A C29U]	0.376
ACCGGAUGUGCUUUCCGGUCUGCUGAGUACGUGAGGACGAAACAG [A23C C29A]	0.267
ACCGGAUGUGCUUUCCGGUCUGAUGAGUCCGUGAGGUCCAAACAG [A37U G39C]	0.326
ACCGUGUGUGCUUUCCGGUCUGAUGAGUCCGUGAGGACGAAACAG [G5U A6G]	0.644
ACCGGAUGUGCUUUCCAGUCUGAUGCGUCCGUGAGGACGAAACAG [G17A A26C]	0.272

Variant	self-cleavage
ACUGGAUGUGCUUUCCGGCCUGAUGAGUCCGUGAGGACGAAACAG [C3U U19C]	0.539
ACCUGCUGUGCUUUCCGGUCUGAUGAGUCCGUGAGGACGAAACAG [G4U A6C]	0.282
ACCGGAUGUGCUUUCCGAUCUGAUGAGUCCGUGAGGGCGAAACAG [G18A A37G]	0.676
ACCGGAUGUGCUUUCCGGUGUGAUGAGUCCGUGAGGCCGAAACAG [C20G A37C]	0.298
ACCGGAUGUGCUUUCCGGUCUGAUGAGUCCAUCAGGACGAAACAG [G31A G33C]	0.767
ACCGGAUGUGCUUUCGGGUCUGAUGAGUCCGUGAGGACGAAAGAG [C16G C43G]	0.265
ACCGGAUGUGCUUACCGGUCUGAUGAGGCCGUGAGGACGAAACAG [U14A U28G]	0.555
ACCGGACGUGCUUUCCGGUCUGAUGAGUCCGUGAGGACGACACAG [U7C A41C]	0.34
ACCGGAUGUGCUUUCCGGUAUGAUGAGUCCGUGAGUACGAAACAG [C20A G36U]	0.306
ACCGGAUGUGCUUUGCGGUCUGUUGAGUCCGUGAGGACGAAACAG [C15G A23U]	0.303
ACCAGAUGUGCUUUCCGGUCUGAUGAGUCCGUGAGGAAGAAACAG [G4A C38A]	0.373
ACCGGAUGUGCUUUCCGGUCUCAUGAGUCCGUGAGGACGAGACAG [G22C A41G]	0.31
ACCGUAUGUGCUUUCCGGUCUGAUGAGUCCGUGAAGACGAAACAG [G5U G35A]	0.476
ACCGGAUGUGGUUUCCGGUCUGAUGAGUCCGUGAAGACGAAACAG [C11G G35A]	1.02
ACCGAAUGUGCUUUCCGGUCUGAUGAGUCCGUAAGGACGAAACAG [G5A G33A]	1.44
ACCGGAUGUGCUUUCCGGUCUGAUGAGUCCGUGAGGACGACCCAG [A41C A42C]	0.375
ACCGGAUGUGCUUUCCGGUCUGAUUAGUCCGUGAGGACGAAAUAG [G25U C43U]	0.36
ACCGGAUGUGCUUUCCGGUCUGAUGGGUCCGUGAGGACGGAACAG [A26G A40G]	0.328
ACCGGAUGUGCUUUCGGGUCUGAUGAGUCCGUGAGGACGCAACAG [C16G A40C]	0.372
ACCGGAUGUGCUUUCCGUUCUGAUGAGUCCGUGAGGACGAAACUG [G18U A44U]	0.368
ACCGGAUGUCCUUUCCGGUCUGAUGAGUACGUGAGGACGAAACAG [G10C C29A]	0.678
ACCGGAUGUGAUUUCCGGUCUGUUGAGUCCGUGAGGACGAAACAG [C11A A23U]	0.401
